Consider two molecules from patent CN113880948A.

This test addresses CA724抗原 (CA724). Nature of the test: biolayer interferometry type kinetics, antibody captured on AMQ biosensor, antigen in solution (diluted 10-fold).

B1: 抗CA724重组抗体 (recombinant anti-CA724 antibody made in Example 1, expressed in Expi293F cells) (antibody, mouse IgG1, kappa, V domains shown)
VH: QVQLQQSDAELVKPGASVKISCKASGYTFTDHAIHWAKQKPEQGLEWIGYISPGNDDIKYNEKFKGKATLTADKSSSTAYMQLNSLTSEDSAVYFCKRSYYGHWGQGTTLTVSS
VL: DIQMTQSPASLSVSVGETVTITCRASENIYSNLAWYQQKQGKSPQLLVYAATNLADGVPSRFSGSGSGTQYSLKINSLQSEDFGSYYCQHFWGTPYTFGGGTRLEIKG
In turn, B1 returned a Kd of 18 nM, a koff of 0.00109 s⁻¹ and a kon of 60700 M⁻¹ s⁻¹.

B2: 抗CA724单克隆抗体 (anti-CA724 monoclonal antibody purified from the hybridoma of Example 1) (antibody, V domains shown)
VH: QVQLQQSDAELVKPGASVKISCKASGYTFTDHAIHWAKQKPEQGLEWIGYISPGNDDIKYNEKFKGKATLTADKSSSTAYMQLNSLTSEDSAVYFCKRSYYGHWGQGTTLTVSS
VL: DIQMTQSPASLSVSVGETVTITCRASENIYSNLAWYQQKQGKSPQLLVYAATNLADGVPSRFSGSGSGTQYSLKINSLQSEDFGSYYCQHFWGTPYTFGGGTRLEIK
The molecule B2 registered a Kd of 16.4 nM, a koff of 0.000897 s⁻¹ and a kon of 54700 M⁻¹ s⁻¹.
